Target: TglB (Pseudomonas syringae)
Assay: fluorescence polarisation

Row | Substance | IC50
1 | TglA V48A (peptide) | 113 µM
2 | TglA V43A (peptide) | 98 µM
3 | TglA E45A (peptide) | > 300 µM
4 | TglA F49A (peptide) | 4.2 µM
5 | TglA E42A (peptide) | 10.5 µM
6 | TglA D40A (peptide) | 15 µM
7 | TglA S46A (peptide) | 11 µM
8 | TglA K47A (peptide) | 255 µM
9 | TglA I44A (peptide) | 24 µM
10 | TglA I41A (peptide) | 32 µM
11 | WT TglA (peptide) | 8 µM

Source: publication PMC6927032
